The experiment deals with T1, CH2-CH3 AAA P329R CAR.
T1 construct: Expressed on transduced primary human T cells (CD4+:CD8+ 1:1); also called CH2 CH3 AAA PR CAR
Briefly: flow cytometry double staining of CH2-CH3 AAA P329R CAR T cells with 50 nM anti-PG VH3xVL1 huIgG-AF647 and 100 nM anti-AAA x FolR1 1+1 TCB Avi Biotin + BV421 streptavidin. Here is the method:
In order to assess if the P329G mutation and AAA mutations can be bound by the respective molecules simultaneously, a second staining was performed as follows (FIG. 12A). The cells were incubated with LIVE/DEAD™ Fixable Near-IR Dead (Invitrogen, #L34976) dye (1:1000 in DPBS) and 50 nM of anti-PG VH3×VL1 huIgG-AF647 for 20 minutes at 4° C.
Then the cells were washed twice with FACS-buffer. In a second step the cells were incubated with 100 nM of anti-AAA×FolR1-Avi-Biotin 1+1 TCB and 500 nM Fc_P329LALA (20 minutes at 4° C.). Fc_P329GLALA served as blocking molecule, to prevent binding of the anti-PG VH3×VL1 huIgG-AF647 to the PG mutation in the anti-AAA×FolR1-Avi-Biotin 1+1 TCB. After the incubation, the cells were washed twice with FACS-buffer. In a third step the cells were resuspended in BV421 Streptavidin (Biolegend, #405225) and 500 nM Fc_P329LALA (20 min, 4° C.). After another two washing steps, the cells were fixed (BD CytoFix, #554655) and analyzed on the FACS.
(In general: Flow cytometry measures light scatter and fluorescence of single cells or particles in a stream.)

T1 sequence (chain, as listed by the source P329R P329R limits assumed): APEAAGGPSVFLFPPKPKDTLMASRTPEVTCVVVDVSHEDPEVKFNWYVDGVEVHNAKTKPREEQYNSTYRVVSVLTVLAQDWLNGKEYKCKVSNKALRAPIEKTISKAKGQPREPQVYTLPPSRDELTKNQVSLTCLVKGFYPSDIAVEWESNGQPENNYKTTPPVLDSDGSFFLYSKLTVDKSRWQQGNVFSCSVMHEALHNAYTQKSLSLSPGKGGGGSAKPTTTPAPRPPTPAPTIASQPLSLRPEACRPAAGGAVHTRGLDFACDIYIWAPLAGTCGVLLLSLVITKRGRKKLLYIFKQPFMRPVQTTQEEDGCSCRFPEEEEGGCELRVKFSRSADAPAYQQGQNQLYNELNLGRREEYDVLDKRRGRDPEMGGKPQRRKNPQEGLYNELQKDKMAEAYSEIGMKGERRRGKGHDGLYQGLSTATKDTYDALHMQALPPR

B1: Anti-P329G (VH3VL1) huIgG1 (antibody, V domains shown)
VH: EVQLVESGGGLVQPGGSLRLSCAASGFTFSRYWMNWVRQAPGKGLEWVGEITPDSSTINYAPSLKGRFTISRDNAKNSLYLQMNSLRAEDTAVYYCARPYDYGAWFASWGQGTLVTVSS
VL: QAVVTQEPSLTVSPGGTVTLTCRSSTGAVTTSNYANWVQEKPDHLFTGLIGGTNKRAPGTPARFSGSLLGGKAALTLSGAQPEDEAEYYCALWYSNHWVFGGGTKLTVL
notes: huIgG1; also called P1AE9957; anti-P329G VH3×VL1 AF647 labeled IgG
With B1, the binding result is given as “no binding (tested: 50 nM)”.

The record behind these values is patent US20250082753A1 (Hoffmann-La Roche, published 2025).
